One molecule from PMC6393291 (Nucleic Acids Research, 2018) can be followed below.

This experiment deals with T1, MSL2-FLAG (D. melanogaster, UniProt P50534 1-773).
T1 sequence (looked up): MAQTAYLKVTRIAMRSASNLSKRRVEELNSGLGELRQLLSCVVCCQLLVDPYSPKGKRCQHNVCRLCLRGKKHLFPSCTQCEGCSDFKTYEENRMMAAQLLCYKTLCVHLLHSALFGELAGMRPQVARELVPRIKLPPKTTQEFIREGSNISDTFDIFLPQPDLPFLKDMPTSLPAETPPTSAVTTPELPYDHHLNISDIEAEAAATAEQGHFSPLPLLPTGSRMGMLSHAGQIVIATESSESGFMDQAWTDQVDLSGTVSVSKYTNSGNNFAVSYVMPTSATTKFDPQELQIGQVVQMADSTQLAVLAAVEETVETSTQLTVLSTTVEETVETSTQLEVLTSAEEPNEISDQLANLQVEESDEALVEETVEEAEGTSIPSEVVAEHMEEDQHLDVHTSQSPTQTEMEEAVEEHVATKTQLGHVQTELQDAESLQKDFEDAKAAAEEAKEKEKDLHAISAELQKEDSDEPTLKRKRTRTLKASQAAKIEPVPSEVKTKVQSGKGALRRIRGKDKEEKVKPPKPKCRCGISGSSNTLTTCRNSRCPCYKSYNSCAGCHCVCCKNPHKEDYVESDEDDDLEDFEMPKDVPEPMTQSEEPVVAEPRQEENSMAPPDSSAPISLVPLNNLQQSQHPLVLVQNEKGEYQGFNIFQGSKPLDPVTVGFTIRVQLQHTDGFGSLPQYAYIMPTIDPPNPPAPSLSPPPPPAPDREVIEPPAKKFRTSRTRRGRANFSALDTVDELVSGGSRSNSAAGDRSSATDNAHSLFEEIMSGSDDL
Put plainly: co-IP.

B1: CLAMP-FLAG (natural protein, D. melanogaster, UniProt Q9V9N4 1-561, looked up)
chain: MEDLTKNIIFTNAINGQPATIQYQTADGTILKQPKIEGQKTEQQPTFYYTTNGNGGTVNLAQLATTDDNKTCYIAQPVGGYNYALVNGMPLNQGAALGIATVDAQGRIQIVNQNKPIAANTISNISFKCDVCSDMFPHLALLNAHKRMHTDGEQQQQQQHNAQAGGDSIAVVSAQGLVQAQNIIGNGQMGQIQIVSSDTLEPVQQSVMQQQQHESKASKCINCGSSMLQQSKRKGPKQVRCESCMQAEQTAQQQQQLFVAQDGQMAHPVQIISTTPQAQAQLQQIVAAQTGGTTPKREASSGSGHHPVKKRNSQQMTKCQKCNGSGVVLVGQHSHASHSGVGGSVKQSVTVKTENPSKPFSCNICGGLFSRYSSLWSHKKLHSGEKNYKCSICGLAFAKAVYLKNHARIHTGEKPYKCQTCGMQFSQSPHLKNHERTHSGERPYVCGVCDKGFARHATLWNHRRIHTGEKPYKCEICGSAFSQAAHLKNHAKVHSGEKPYKCEICSAAFADRFALKRHRGIHQKYGQTAPRQTSSDGMIVHKQEIPDMEDEAQQEVIIGGL
For B1, the binding result is “binds”.
